B1: CPEB3 Ribozyme (parent)
chain: GGGGGCCACAGCAGAAGCGUUCACGUCGCGGCCCCUGUCAGAUUCUGGUGAAUCUGCGAAUUCUGCUGU

This series covers variants of B1. Description: self-cleavage, relative activity (ratio to wild type); higher = more cleavage; co-transcriptional.
For the variant G41A G47C, the self-cleavage came to 0.913.

With A40G U44G, the self-cleavage was 0.843.

For the variant A40G U44C, the self-cleavage came to 0.485.

For the variant A40G U62C, the self-cleavage was found to be 0.649.

Take G41A A60C: the self-cleavage came to 0.295.

As to G41A A60U, the self-cleavage was determined as 0.278.

Consider A40U U53C, for which the self-cleavage was found to be 0.296.

Consider G41A G48A, for which the self-cleavage came out at 0.989.

With A40G U64A, the self-cleavage worked out at 0.759.

On to A40G C57G, for which the self-cleavage was 0.326.

On to G41A G50A, for which the self-cleavage worked out at 0.707.

A40U U43A: the self-cleavage stood at 0.306.

On to A40U U43C, for which the self-cleavage was 0.485.

With A40G G48A, the self-cleavage came out at 1.

A40G G48C: the self-cleavage was found to be 0.98.

A40G G48U: the self-cleavage came to 0.969.

As to A40G G41C, the self-cleavage is 0.433.

A40G G41U: the self-cleavage was determined as 0.722.

With A40G G41A, the self-cleavage amounted to 0.706.

With A40G C66U, the self-cleavage was determined as 0.982.

Consider A40G C66A, for which the self-cleavage worked out at 0.54.

In the case of G41A A52G, the self-cleavage stood at 0.716.

Turning to G41A A52U, the self-cleavage worked out at 0.683.

In the case of G41A U62C, the self-cleavage was 0.383.

Turning to G41A U62G, the self-cleavage stood at 0.422.

G41A U62A: the self-cleavage amounted to 0.474.

With G41A U55A, the self-cleavage was 0.596.

Regarding G41A U55G, the self-cleavage stood at 0.379.

Turning to A40U U69G, the self-cleavage was determined as 0.987.

Regarding A40U U69A, the self-cleavage came out at 0.964.

Consider A40U U69C, for which the self-cleavage is 1.

Regarding A40G U46C, the self-cleavage is 0.942.

A40G U46G: the self-cleavage worked out at 0.977.

With A40G U46A, the self-cleavage was 0.971.

A40U U61G: the self-cleavage was 0.286.

As for A40U G48U, the self-cleavage was 0.936.

A40U G48C: the self-cleavage amounted to 0.893.

A40U A52G: the self-cleavage turned out to be 0.832.

Consider A40U G41A, for which the self-cleavage worked out at 0.537.

A40G U49C: the self-cleavage came to 0.877.

Regarding A40G U49G, the self-cleavage is 0.999.

For A40G U49A, the self-cleavage worked out at 0.969.

On to G41C A42U, for which the self-cleavage was 0.504.

Turning to G41C A42C, the self-cleavage came out at 0.26.

On to A40U U62G, for which the self-cleavage was 0.426.

Consider A40U U62C, for which the self-cleavage was 0.351.

Consider A40U U62A, for which the self-cleavage was 0.436.

With A40U G56A, the self-cleavage amounted to 0.818.

Consider A40U C54G, for which the self-cleavage was found to be 0.457.

Consider A40U C54U, for which the self-cleavage was 0.759.

Take G41A G68C: the self-cleavage was 0.881.

For the variant G41A G68U, the self-cleavage worked out at 0.913.

With A40U A59U, the self-cleavage was 0.459.

In the case of A40U A59G, the self-cleavage came to 0.887.

Regarding A40U U67A, the self-cleavage came out at 0.776.

Consider A40U U67C, for which the self-cleavage came to 0.845.

For A40U U67G, the self-cleavage was determined as 0.886.

As for A40G U61A, the self-cleavage was found to be 0.863.

On to A40G U61G, for which the self-cleavage stood at 0.823.

Turning to A40G U61C, the self-cleavage was found to be 0.48.

Regarding A40G G58A, the self-cleavage stood at 0.912.

Regarding A40G G58C, the self-cleavage came to 0.973.

On to A40G G58U, for which the self-cleavage turned out to be 0.963.

For the variant A40U C57G, the self-cleavage stood at 0.366.

G41A C54U: the self-cleavage came out at 0.961.

Turning to G41A C54G, the self-cleavage came out at 0.861.

As to A40G C54U, the self-cleavage came to 0.952.

Take G41A U61G: the self-cleavage turned out to be 0.331.

For G41A U61A, the self-cleavage was found to be 0.463.

On to G41A A42C, for which the self-cleavage amounted to 0.588.

On to G41A A42G, for which the self-cleavage came out at 0.855.

A40U U46G: the self-cleavage came to 0.878.

Consider A40U U46C, for which the self-cleavage was determined as 0.716.

Take A40U U46A: the self-cleavage is 0.919.

G41A U53G: the self-cleavage came to 0.566.

Regarding G41A U53A, the self-cleavage came to 0.65.

Consider A40G U53C, for which the self-cleavage came out at 0.649.

As for A40G U53A, the self-cleavage came to 0.759.

For A40G U53G, the self-cleavage was 0.813.

For G41A U67A, the self-cleavage turned out to be 0.756.

Turning to G41A U67G, the self-cleavage was 0.777.

On to A40U U49A, for which the self-cleavage was 0.922.

As to A40U U49C, the self-cleavage stood at 0.757.

With A40U U49G, the self-cleavage was 0.816.

As for G41A U43C, the self-cleavage stood at 0.416.

For G41A U43A, the self-cleavage amounted to 0.335.

Regarding A40G C63A, the self-cleavage was determined as 0.689.

Take A40G C63U: the self-cleavage was 0.915.

As for A40G C63G, the self-cleavage amounted to 0.563.

For the variant A40U G47C, the self-cleavage came to 0.88.

Take G41A C66G: the self-cleavage was found to be 0.429.

Regarding A40U A51C, the self-cleavage came to 0.564.

As for A40U A51U, the self-cleavage amounted to 0.61.

Regarding A40U A51G, the self-cleavage was 0.842.

With G41A G65C, the self-cleavage was 0.261.

Turning to G41A G65U, the self-cleavage worked out at 0.379.

On to G41A A51U, for which the self-cleavage is 0.511.

Turning to G41A U49C, the self-cleavage was 0.825.

As for G41A U49G, the self-cleavage came out at 0.859.

Regarding A40G G47U, the self-cleavage amounted to 1.02.

For A40G G47A, the self-cleavage amounted to 0.987.

A40U G50C: the self-cleavage was 0.643.

Take A40U G50A: the self-cleavage was 0.731.

For the variant A40G U43G, the self-cleavage worked out at 0.614.

A40G U43C: the self-cleavage amounted to 0.764.

For the variant A40G U43A, the self-cleavage was found to be 0.809.

As for G41C A51C, the self-cleavage worked out at 0.43.

As for G41C A51U, the self-cleavage was 0.542.

Turning to A40G G50U, the self-cleavage was determined as 0.971.

As to A40G G50A, the self-cleavage stood at 0.918.

For A40G G50C, the self-cleavage is 0.943.

With A40U U44C, the self-cleavage turned out to be 0.262.

Take A40U U44G: the self-cleavage was determined as 0.623.

Take G41A U44G: the self-cleavage came out at 0.307.

As for A40G U67G, the self-cleavage was found to be 0.965.

Regarding A40G U67C, the self-cleavage was 0.901.

Turning to G41A C45U, the self-cleavage worked out at 0.677.

Regarding A40U C45G, the self-cleavage was determined as 0.744.

Turning to A40U C45U, the self-cleavage is 0.799.

As for A40U C45A, the self-cleavage came out at 0.629.

With A40U G68A, the self-cleavage came out at 0.937.

As for A40U G68U, the self-cleavage was 0.877.

Consider A40U G68C, for which the self-cleavage was 0.876.

A40G G56A: the self-cleavage was 0.949.

For the variant A40G G56U, the self-cleavage came to 0.895.

A40U U55C: the self-cleavage is 0.828.

A40U U55A: the self-cleavage was determined as 0.936.

Consider A40U U55G, for which the self-cleavage was 0.839.

As for G41A C63U, the self-cleavage was 0.59.

In the case of G41A C63G, the self-cleavage turned out to be 0.348.

Take A40G G65C: the self-cleavage was 0.434.

A40G G65A: the self-cleavage turned out to be 0.756.

With G41A U64G, the self-cleavage turned out to be 0.501.

With G41A U64C, the self-cleavage stood at 0.385.

With G41A C57U, the self-cleavage was found to be 0.368.

For the variant G41A C57A, the self-cleavage is 0.283.

Regarding G41A C57G, the self-cleavage came to 0.299.

As to A40U A60U, the self-cleavage came out at 0.41.

Regarding A40U A60C, the self-cleavage was 0.235.

Take A40U A42G: the self-cleavage came to 0.189.

Regarding A40U A42C, the self-cleavage was found to be 0.419.

In the case of A40U A42U, the self-cleavage is 0.46.

For the variant G41A U69A, the self-cleavage worked out at 0.912.

Consider G41A U69C, for which the self-cleavage stood at 1.03.

For the variant G41A U69G, the self-cleavage came to 1.

A40U U64G: the self-cleavage came out at 0.598.

On to A40U U64A, for which the self-cleavage came to 0.435.

Consider G41A A59C, for which the self-cleavage was found to be 0.358.

Turning to A40U C63G, the self-cleavage is 0.392.

In the case of A40U C63U, the self-cleavage is 0.77.

On to A40G G68C, for which the self-cleavage stood at 0.953.

Consider A40G G68A, for which the self-cleavage stood at 0.954.

Consider A40G C45A, for which the self-cleavage came to 0.884.

With A40G C45U, the self-cleavage came out at 0.933.

As for A40U G65C, the self-cleavage was found to be 0.304.

For A40U G65A, the self-cleavage turned out to be 0.352.

Take A40U G65U: the self-cleavage came out at 0.405.

Turning to G41A U46A, the self-cleavage is 0.863.

For the variant G41A U46C, the self-cleavage was 0.706.

For the variant G41A G56U, the self-cleavage was 0.307.

For the variant G41A G56C, the self-cleavage was determined as 0.31.

On to A40G U69C, for which the self-cleavage was 0.718.

For A40G U69G, the self-cleavage was 1.02.

A40G U69A: the self-cleavage was determined as 1.01.

A40U C66U: the self-cleavage is 0.729.

For A40U C66G, the self-cleavage was 0.325.

In the case of A40U C66A, the self-cleavage was determined as 0.397.

Source of the values: the RNAGym collection of RNA variant scans (doi:10.7554/elife.80360).
